# Reference: paper PMC8276268 (Biochemistry, 2012)
# T1: HA-tagged full-length ABCG2 (ABCG2^HA-WT) (human, UniProt Q9UNQ0 1-655, R482G)
# T1 sequence (looked up): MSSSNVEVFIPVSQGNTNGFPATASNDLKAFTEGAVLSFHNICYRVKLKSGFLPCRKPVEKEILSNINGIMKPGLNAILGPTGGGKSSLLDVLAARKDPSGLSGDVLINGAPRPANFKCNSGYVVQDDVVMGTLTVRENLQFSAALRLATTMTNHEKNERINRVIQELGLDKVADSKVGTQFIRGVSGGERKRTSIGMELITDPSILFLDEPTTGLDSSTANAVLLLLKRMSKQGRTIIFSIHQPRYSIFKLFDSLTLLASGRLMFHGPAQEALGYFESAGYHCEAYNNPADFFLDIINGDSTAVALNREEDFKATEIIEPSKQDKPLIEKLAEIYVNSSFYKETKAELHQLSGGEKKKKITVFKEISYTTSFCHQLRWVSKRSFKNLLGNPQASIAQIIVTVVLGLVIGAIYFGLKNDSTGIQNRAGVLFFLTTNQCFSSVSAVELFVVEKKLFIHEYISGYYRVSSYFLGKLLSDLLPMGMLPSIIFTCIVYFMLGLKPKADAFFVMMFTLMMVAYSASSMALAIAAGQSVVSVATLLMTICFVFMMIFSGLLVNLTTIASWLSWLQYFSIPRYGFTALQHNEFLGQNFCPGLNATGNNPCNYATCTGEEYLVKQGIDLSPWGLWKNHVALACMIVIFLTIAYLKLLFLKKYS
# How the values were obtained:
# [1] = target: ABCG2^Myc-TM5*L3* (full-length ABCG2 with TM5—ECL3 replaced by TM1—ECL1) (human) (UniProt Q9UNQ0); assay: cross-linking
# [2] = target: ABCG2^Myc-L3*TM6* (full-length ABCG2 with ECL3—TM6 replaced by ECL1—TM2) (human) (UniProt Q9UNQ0); assay: cross-linking
# [3] = target: ABCG2^Myc-TM6* (ABCG2 with TM6 replaced by TM2) (human) (UniProt Q9UNQ0); assay: cross-linking
# [4] = target: ABCG2^Myc-ECL3* (full-length ABCG2 with ECL3 replaced by ECL1) (human) (UniProt Q9UNQ0); assay: cross-linking
# [5] = target: ABCG2^Myc-TM5* (ABCG2 with TM5 replaced by TM1) (human) (UniProt Q9UNQ0); assay: cross-linking
# [6] = target: T1, HA-tagged full-length ABCG2 …; assay: co-IP
molecule,measurement,setting,value
ABCG2^Myc-TM5*L3* (full-length ABCG2 with TM5—ECL3 replaced by TM1—ECL1) (from UniProt Q9UNQ0 1-655) (natural protein),percent of the protein cross-linked as dimer,[1],29%
same,percent of the protein cross-linked as pentamer,[1],51%
same,percent of the protein cross-linked as trimer,[1],8%
ABCG2^Myc-L3*TM6* (full-length ABCG2 with ECL3—TM6 replaced by ECL1—TM2) (from UniProt Q9UNQ0 1-655) (natural protein),percent of the protein cross-linked as dimer,[2],11%
same,percent of the protein cross-linked as hexamer,[2],89%
ABCG2^Myc-TM6* (ABCG2 with TM6 replaced by TM2) (from UniProt Q9UNQ0 1-655) (natural protein),percent of the protein cross-linked as dimer,[3],18%
same,percent of the protein cross-linked as tetramer,[3],49%
same,percent of the protein cross-linked as trimer,[3],29%
ABCG2^Myc-ECL3* (full-length ABCG2 with ECL3 replaced by ECL1) (from UniProt Q9UNQ0 1-655) (natural protein),percent of the protein cross-linked as dimer,[4],26%
same,percent of the protein cross-linked as pentamer,[4],43%
same,percent of the protein cross-linked as trimer,[4],11%
ABCG2^Myc-TM5* (ABCG2 with TM5 replaced by TM1) (from UniProt Q9UNQ0 1-655) (natural protein),percent of the protein cross-linked as dimer,[5],31%
same,percent of the protein cross-linked as tetramer,[5],10%
same,percent of the protein cross-linked as trimer,[5],32%
"Myc-tagged wild-type ABCG2 (ABCG2^Myc-WT) (natural protein, human, UniProt Q9UNQ0 1-655, looked up) MSSSNVEVFIPVSQGNTNGFPATASNDLKAFTEGAVLSFHNICYRVKLKSGFLPCRKPVEKEILSNINGIMKPGLNAILGPTGGGKSSLLDVLAARKDPSGLSGDVLINGAPRPANFKCNSGYVVQDDVVMGTLTVRENLQFSAALRLATTMTNHEKNERINRVIQELGLDKVADSKVGTQFIRGVSGGERKRTSIGMELITDPSILFLDEPTTGLDSSTANAVLLLLKRMSKQGRTIIFSIHQPRYSIFKLFDSLTLLASGRLMFHGPAQEALGYFESAGYHCEAYNNPADFFLDIINGDSTAVALNREEDFKATEIIEPSKQDKPLIEKLAEIYVNSSFYKETKAELHQLSGGEKKKKITVFKEISYTTSFCHQLRWVSKRSFKNLLGNPQASIAQIIVTVVLGLVIGAIYFGLKNDSTGIQNRAGVLFFLTTNQCFSSVSAVELFVVEKKLFIHEYISGYYRVSSYFLGKLLSDLLPMGMLPSIIFTCIVYFMLGLKPKADAFFVMMFTLMMVAYSASSMALAIAAGQSVVSVATLLMTICFVFMMIFSGLLVNLTTIASWLSWLQYFSIPRYGFTALQHNEFLGQNFCPGLNATGNNPCNYATCTGEEYLVKQGIDLSPWGLWKNHVALACMIVIFLTIAYLKLLFLKKYS","Co-IP with WT, relative to the wild-type construct",[6],100%
